Test results as given in the supplement of paper PMC12764529.
± gives the half width of the 95% confidence interval.

Assays:
[1] = folding stability dG unfold from chymotrypsin proteolysis; higher = more stable
In short: (§1)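 Digests were run with trypsin and chymotrypsin at 11 concentrations in threefold dilutions, plus a no-protease condition, on designed mini-proteins in a PA-tagged cDNA display construct. The mini-proteins were under 80 residues, had no cysteine, and were kept only when AlphaFold2 dimer inter-PAE was above 15. After sequencing, Bayesian fitting of the counts gave K50, from which unfolding free energy was derived against a sequence-predicted unfolded-state K50 and a shared folded-state K50, per protease or combined.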

[2] = folding stability dG unfold (combined trypsin and chymotrypsin); higher = more stable
In short: as §1

[3] = folding stability dG unfold from trypsin proteolysis; higher = more stable
In short: as §1

Sequence | folding stability dG unfold [1] [kcal/mol] | folding stability dG unfold [2] [kcal/mol] | folding stability dG unfold [3] [kcal/mol]
SAGMVRIERDGDELLIEFEFPEDEPEAVRALIEAIESLGLEVVEAEIEAEPGEGDLRRVRLRFKIKPLESAG [r5_739_TrMRF] | 4.58 ± 0.083 | 4.39 ± 0.15 | 3.95 ± 0.22
SAGMVTTTTVTFPNGATMTVTTHSSGIITIEATSEEDARAFLEAQGLPLTSREVLPDGTYRFTAVVPPSAGG [r19_257_JUSTAS] | 4.53 ± 0.057 | 4.52 ± 0.062 | 4.61 ± 0.13
SAGMVTYTVTVPYAPAGKRVRVTLFDEGKEIASFEGVENAPYNQTFTFTAPPFTIRIEYEDGSVDPLPASAG [r5_646_TrMRF] | 4.05 ± 0.058 | 3.57 ± 0.23 | 3.32 ± 0.27
SAGMVVIEVKKDEVPVDPEKALVFEFGDKRYILVDGEKAEEIKDAFPNLDIKIKPVSPEELEKLLKAHSAGG [r19_271_TrMRF] | 1.34 ± 0.1 | 1.27 ± 0.14 | 1.18 ± 0.051
SAGMVVKFVSPSKKYVAVVYFSPDGKYRTALLYDASGELVSVIPSSVPVEELLEAFPDATVEVYPLDPPSAG [r5_314_TrMRF] | 2.59 ± 0.056 | 2.34 ± 0.1 | 1.95 ± 0.041
SAGMVVRITVLPEGEEREFVVAATPEEARELLEELGYEVEEFPELPVLVARRPDAVVLVEFIPVAPDALSAG [r5_248_TrMRF] | 1.999 ± 0.015 | 1.83 ± 0.039 | 1.59 ± 0.032
SAGMVVTERTEPATGRPYTVTTEEDGSVTGSYPATGDTRSTTLNDRTTFSLPTTSPEVAAAQVEAALAASAG [r14_561_JUSTAS] | -0.313 ± 0.15 | -0.137 ± 0.072 | -0.138 ± 0.075
SAGMVVTINFSIPETGETITITIPVPEDDPVVKALGAPSAEDIAAYLAPQLKEKGINVQNPTVTVTEPSSAG [r5_722_JUSTAS] | 0.928 ± 0.053 | 0.705 ± 0.051 | 0.24 ± 0.043
SAGNFKIDINPENNMIMIKSPNGWFMFPFTYTRTQPEPDPDDPNEWKQRPRTETHYIMMPANDLKDLLNSAG [r5_234_TrROS] | 0.502 ± 0.24 | 0.541 ± 0.27 | 0.679 ± 0.17
SAGNIRIDVHVPPDGYYMIKIRFPGNGREANIMLPPNDPDKFKELAEEIAENLFEEGFPIEVDIEPIPPSAG [r5_815_TrROS] | 2.34 ± 0.095 | 1.89 ± 0.31 | 1.56 ± 0.07
SAGNMFMVRITFPMPRYEQKRDPDNGKPKMEPKPHPREITIMVPPDSPQARDLANKLAPPGWKVDVFPMSAG [r5_468_TrROS] | 1.43 ± 0.22 | 1.09 ± 0.19 | 0.0695 ± 0.58
SAGNPDKPPKPRTYTLEIEIKLPPGDPDQAKELAHEIAHEIRDLGIKDTEVEYDPGNGRVRISITFTFWSAG [r5_512_TrROS] | 3.49 ± 0.09 | 3.27 ± 0.28 | 2.8 ± 0.076
SAGNPDYIPIPFRVWIMRRVPPGMSKEQAKKNPDMYVMVPIPVKFYIDPDTGRIRVENPDGKTIEFPLPSAG [r5_701_TrROS] | 3.15 ± 0.07 | 2.68 ± 0.096 | 2.11 ± 0.03
SAGNPSLVKETIIPFTLPDGSEVKLTVKTDPSTGKVTMPIETKDEKVKAKAIELAKKIAEELGFPEVGLSAG [r5_99_JUSTAS] | 0.241 ± 0.14 | 0.261 ± 0.079 | -0.00377 ± 0.15
SAGNVVETEEKPVESPLPRKATLTTLTSPTPGVTFRVFTSPENVTTVEVETDGRTETLEPAEAEALLASSAG [r5_157_JUSTAS] | -0.995 ± 0.3 | < -1 | -1.35 ± 0.58
SAGNWKIEIKVKHRRTPDGYYRVTARIQIWDPKNGKPLREIPIEGPFDSPEQAERRARKKAKEILKALSAGG [r19_255_TrROS] | 2.71 ± 0.044 | 2.74 ± 0.13 | 2.97 ± 0.068
SAGNYYRVEVENPSEGKKVTIHIFPNGMINVEHDGGEHWIMIPPDNPDQIEEIASELAPNGYEVDIEPWSAG [r5_791_TrROS] | 0.856 ± 0.27 | 0.774 ± 0.18 | 0.593 ± 0.11
SAGPDLPFDVRLVEVRDMEVRVTPDGRLVVTLPMVGRHPSGFLVRRTIRFEPETDRVEATGEVRPLDESAGG [r19_320_TrMRF] | 0.804 ± 0.087 | 0.774 ± 0.059 | 0.581 ± 0.062

Sequence | folding stability dG unfold [1] [kcal/mol] | folding stability dG unfold [2] [kcal/mol] | folding stability dG unfold [3] [kcal/mol]
SAGPEPVIRLAREHLERGEVLRITLTGRSGVPRTFLLRPEDILWFFDNLPDPSDIASVDIETYPLGYPPSAG [r5_956_TrMRF] | 3.352 ± 0.016 | 3.01 ± 0.078 | 2.17 ± 0.028
SAGPEVVVFKGIEVEVTEVPPELLENLPPDVIAIPFGDRVLLIRVREYDVARFPPIPPLGANPETGELSSAG [r14_126_TrMRF] | 2.61 ± 0.11 | 2.44 ± 0.3 | 2.17 ± 0.12
SAGPGWIMIRVKIKMRKWKDGKPVRRPIEIPIMAPADGDPEAARRKAEELAEFLAQMYGMEIEDVEIFPSAG [r5_497_TrROS] | 3.74 ± 0.057 | 3.55 ± 0.065 | 3.07 ± 0.092
SAGPITITYDEETGTLTITATVAPGEEVTFKLTFVDEETGVVVTEVEETVTVKEGDTVTITVKVEKLPPSAG [r5_737_TrROS_Hall] | 3.69 ± 0.13 | 3.34 ± 0.27 | 2.19 ± 0.14
SAGPKELAKQIKEIARELARAFHPNGQPMKMEVEIEPVSIDDENGWVRLKVKIRMPNRPVKFNITIPLKSAG [r5_53_TrROS] | 3.19 ± 0.12 | 2.72 ± 0.27 | 2.04 ± 0.07
SAGPKIEIHYTPNGIHLTIELPGEWIWMMIPVPPGEKVKIRLPGNGLEITARPYDDYVMIRIRIPDAPSAGG [r19_384_TrROS] | 5.3 ± 0.16 | 4.74 ± 0.27 | 3.59 ± 0.083
SAGPKITVKKLPDGSYLLLIEVPHEGGPSSRALIPYNPKTGKLELLEIETTHEEIKDKLIELAEELRKSSAG [r5_266_TrMRF] | 2.8 ± 0.071 | 2.52 ± 0.13 | 1.96 ± 0.08
SAGPNKPYKIRVSIMHPGKWREHEIDIDPGEDIEEALDEIMDKLPPNWMIMIHYANGEMIMIPIPPEMISAG [r5_77_TrROS] | 2.18 ± 0.086 | 2.11 ± 0.16 | 1.72 ± 0.097
SAGPPGQPIKPIDITVKPEENTITIKFGDKNLEIPIPPGVEADIWVYPDHIVITIEFPDGKIVTIVLPFSAG [r5_21_TrROS] | 4.46 ± 0.19 | 4.33 ± 0.26 | 3.73 ± 0.31
SAGPPKKREFEIMIQIPLPPGQSAEELKDLLEIPIRLPDGKTIEIRPRAIEVDPGPGQVTVHYKIEVTDSAG [r5_939_TrROS] | 0.498 ± 0.11 | 0.463 ± 0.099 | 0.179 ± 0.079
SAGPPPVKVTVTADYVIEDGKPIVTYTLTFPDGSTTTVTSDPETLVEWLKQHYPDIDVLNFNSGTAPAASAG [r5_25_JUSTAS] | 4.05 ± 0.047 | 3.77 ± 0.13 | 2.78 ± 0.068
SAGPPWEPVPITPEIIDKLADKLNPGFPISLQVYRHPDGRVKISIRNEGSGKEYTLVVDPDGDIEIEPSAGG [r19_70_TrROS] | 3.522 ± 0.033 | 3.4 ± 0.1 | 3.07 ± 0.19
SAGPRPIEIYVDPDGMINIRFPNNGREINIPIPKGAEIEIIELPDDYIVIEIKFGGETREFWIPPEDISAGG [r19_309_TrROS] | 3.08 ± 0.064 | 3.46 ± 0.076 | 4.04 ± 0.13
SAGPTFEIVSVEEVDGKTYIRIRLPNGRIVTARITEVKRLGPDGKLYIKVEPGMSEEELKALLPPEVLKSAG [r5_462_TrROS_Hall] | 2.825 ± 0.02 | 2.63 ± 0.042 | 2.29 ± 0.053
SAGPTVRIRFAGEEEIEVEVGEELEIRLPDGSVVRIRVKPDGTVTVTRPDGSEVELEDVDEVEIEVFPASAG [r5_869_TrROS_Hall] | 3.21 ± 0.076 | 3.4 ± 0.2 | 3.3 ± 0.13
SAGPTVRQETFGEKYRIEVEVSPDGTVKVKIVNENGEVTELEGKVEPGKPVVLPFPLDGHVVNVVVLPASAG [r5_237_TrMRF] | 2.91 ± 0.06 | 2.52 ± 0.13 | 1.54 ± 0.089
SAGPVKIQIEPDNGEEFEFRLPPNVSEIETSGDKFIIRFPPGMMFKIEIDEELPPGDTVPIRILDIVPSAGG [r19_274_TrROS] | 1.26 ± 0.15 | 1.21 ± 0.17 | 1.33 ± 0.057
SAGPWIMIPLPPELREIAKKAGMSPDDVETVEIPLKFGDREVKIEVEVMPDDGWIMVRFKSNGKEFMIPSAG [r5_545_TrROS] | 3.22 ± 0.13 | 2.38 ± 0.29 | 1.55 ± 0.1
